# Experimental data as given in the supplement of paper PMC9170038.
# Test system: MS2 coat protein
# Experiment: apparent KD of MS2 coat protein; designed switch direction (-1 OFF switch, 1 ON switch): -1; higher = weaker reporter binding
# How it was run: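 For each design, the apparent KD is the median over clusters of curves fitted to normalised cluster fluorescence. Clusters held RNA switches with common flanks, transcribed on Illumina chips by stalled E. coli RNA polymerase. These were titrated with SNAP-549-labelled MS2 coat protein, doubling from 0.7 or 1.5 nM to 3 µM, without input, with 200 uM small-molecule ligand, or with an oligonucleotide input.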
# [1] = Eterna round: R95, input ligand: FMN 200 uM
# [2] = Eterna round: R95, input ligand: microRNA oligo, concentration not stated
# [3] = Eterna round: R95, input ligand: none
# [4] = input ligand: microRNA oligo, concentration not stated
Sequence,apparent KD of MS2 coat protein [1] [nM],apparent KD of MS2 coat protein [2] [nM],apparent KD of MS2 coat protein [3] [nM],apparent KD of MS2 coat protein (input ligand: FMN 200 uM) [nM],apparent KD of MS2 coat protein [4] [nM],apparent KD of MS2 coat protein (input ligand: none) [nM]
"GGUACUAUCACCUGAGUGGUAGUGCAACAAGCUUGUGAUACAUGAGGAUCACCCAUGUCCUCAUUUGCUCGUCUUAU [JL-sv3-2.25 JL mod] (puzzle: Sensor v3, turn-off variant 2)",209,1070,217,–,–,–
"CAUGAUCUUCGGAUCAUGUACAUGAGGAUCACCCAUGUUACGAGUUGAUCCUCAUACAAGCUUUUUGCUCGUCUUAU [Sensor v3 - Turn-off variant 1 - 26] (puzzle: Sensor v3, turn-off variant 1)",22.2,14.8,20.8,–,–,–
GGUCUGCGAGGAUAUACAUGAGGAUCACCCAUGUGAGAGUUACUAGUGAGGUCGAUUGGUAGAAGGCGCGGACG [JL-ex3-2.04 salish99 mod] (puzzle: Exclusion 3),19,103,154,–,–,–
"UGCCCGGUUAGAGGAUAUCUACUGUGACUGGGUUUUCCAAAACAUGAGGAUCACCCAUGUGACGGAGAGAAGGCUAGCCUUAAA [Anedanage] (Eterna round: R96, puzzle: Exclusion NG 2)",–,–,–,26.8,31.1,40.1
"UAUUAGUAAGGAUAUGAGCCGUAGGACGAAAGUCCUACGGCUCAGAAGGUACAUGAGGAUCACCCAUGUUUAUU [Mod of Fisker 6 - Jieux - Exclusion 4] (Eterna round: R97, puzzle: Exclusion 4)",–,–,–,22.5,–,15.9
"CCCGUGUAAGGAUAUCGUUCACUUGGCAAAAGUCGAGUGGACGAGAAGGUACAUGAGGAUCACCCAUGUACGGG [-32.4, -32 kcal, A 28%] (Eterna round: R97, puzzle: Exclusion 4)",–,–,–,406,–,282
"AGGUGCUUCUGGAGACAUGAGGAUCACCCAUGUUGAGUUAGCGAGGAUAUCGGUAACGCAUGUGAUGAGAAGGCGCAAACCAAU [Ex NG3 #47] (Eterna round: R96, puzzle: Exclusion NG 3)",–,–,–,79.7,30.7,47
GGUUAUUGCAAGGAUAUGCUUUUUUUUUAUUUUGCAGAAGGUGCAACAUGAGGAUCACCCAUGUUGGAGGGUUU [JR_E6_Sub023] (puzzle: Exclusion 6),–,21.7,–,–,–,–
"CACCUGAAGAGAGGAUAUCAUACAUGAGGAUCACCCAUGUAAUAAAUGAGAAUUUCGAAUGUAAUUGAGAAGGCUCAAUAAGGC [Ostricism 95 - Jieux - Exclusion NG 2] (Eterna round: R96, puzzle: Exclusion NG 2)",–,–,–,82.9,33,47.9
"CAGUACGGAGGAUAUACAUGAGGAUCACCCAUGUACGCGGGUGUCACUGGGAGAACUUGUAGAAGGCCGAGUCC [Eternabot (L1) Solution 8] (Eterna round: R97, puzzle: Exclusion 3)",–,–,–,196,–,107
"CGGAGCAGAGGGAGAUCCAACAUGAGGAUCACCCAUGUCUCACAAGCUUUUUGCUCGUCUUAUUGUACCUUGGUGCU [JL ViennaUCT Edcesobi mod 7] (puzzle: Sensor v3, turn-off variant 1)",64.5,11.1,49.1,–,–,–
"CAUUGUUACGGAGGAUAUCGUAUUGAGAUACUAUGAGAAGGCCGAAUAAACAUGAGGAUCACCCAUGUGAGACGGAUGCUUGUG [Ex NG1 #35] (Eterna round: R96, puzzle: Exclusion NG 1)",–,–,–,33.1,14.9,18.9
CUUUUGUGAGGAUAUUAGUAGUAAAUAAAUAAAAUUACUACUGAGAAGGUACAUGAGGAUCACCCAUGUUCCUC [salish99_ex4_r3_044] (puzzle: Exclusion 4),–,15.8,–,–,–,–
"CCAGCGUAUGUGAGGAUAUGCUGGUCCUUGGAUCAGCAGAAGGCACAUGAGGAUCACCCAUGUGGAAACGUUGG [Mod of JL 1 - Jieux - Brourd's mod of Exclusion 4] (Eterna round: R97, puzzle: Brourd's mod of Exclusion 4)",–,–,–,95.4,–,24.3
"UGAUGUACUCAGGAUAUGAGUAGCUUUCGAGCAUCAGAAGGGAGUACAUGAGGAUCACCCAUGUUGGCCAUGUU [EX6 C.9] (Eterna round: R97, puzzle: Exclusion 6)",–,–,–,81.2,–,683
"UUAAUUAAUUGACUGCAAGAUCAACAUGAGGAUCACCCAUGUGAGGAUAUCAGCUCGUUUAGAGCUGAGAAGGCACAAGCAGUC [ExNG3/16-A2] (Eterna round: R96, puzzle: Exclusion NG 3)",–,–,–,53.6,16.7,17.6

Sequence,apparent KD of MS2 coat protein [1] [nM],apparent KD of MS2 coat protein [2] [nM],apparent KD of MS2 coat protein [3] [nM],apparent KD of MS2 coat protein (input ligand: FMN 200 uM) [nM],apparent KD of MS2 coat protein [4] [nM],apparent KD of MS2 coat protein (input ligand: none) [nM]
"CCUCAGUCACAGGAUAUGCUCAUCUAAUGAUGAGCAGAAGGGUGAACAUGAGGAUCACCCAUGUUUACGAGGGU [Omei Ex6 E7] (Eterna round: R97, puzzle: Exclusion 6)",–,–,–,407,–,555
"ACAUCACAUGAGGAUCACCCAUGUCAGGAUAUUCAGCGUAGCAUGCUACCUAACAUCAGAAGAAGGGACACGUA [First Design] (Eterna round: R97, puzzle: Exclusion 1)",–,–,–,64.5,–,68.2
"CUUCACCCACCAGAGCUCACCCACAAACCUGCCCUGGUGACAUGAGGAUCACCCAUGUUUUUUGCCCGUCUUAUCUU [Diletibi] (puzzle: Sensor v3, turn-off variant 2)",42,241,46.8,–,–,–
CCUCAGUAAGGAUAUCAGCUUAUGGAGUUGGUAAUGAGAGCUGAGAAGGUACAUGAGGAUCACCCAUGUUAGUU [JL Zatite mod 2] (puzzle: Exclusion 4),–,25.4,–,–,–,–
"GUAAACGUAUAGGAUAUUUCAGGUCAAAGCUGCAAAGAAGGAUGCACAUGAGGAUCACCCAUGUGGUCAAUAAA [Mod of Quesina 24 - Jieux - Exclusion 6] (Eterna round: R97, puzzle: Exclusion 6)",–,–,–,25.7,–,22.2
AAACACUUAGGAUAUACAUGAGGAUCACCCAUGUCAGACAACGACUACACAAAGUCAUGUAGAAGGAAGUCAAG [Islarele] (puzzle: Exclusion 3),24.3,24.1,26,–,–,–
"CAUUUCAGUCGGAGAUCCAACAUGAGGAUCACCCAUGUCUCUAAAGCUUUUUGCUCGUCUUAUCCUCCUUUGUUCAC [JR_STOV1_Sub098] (Eterna round: R97, puzzle: Sensor, turn-off variant 1)",–,–,–,458,–,299
"AUGCCCUGAGGAUAUCUCAUCCCGCACAUGAGGAUCACCCAUGUUCUUCUCUGGGUUUCGAGAGAAGGCAGGCCUA [Armus3] (Eterna round: R97, puzzle: Exclusion 5)",–,–,–,53.6,–,118
"AGUAACUAUCACGAAAGUGAUAGUUACAACAAGUGAUAAACAUGAGGAUCACCCAUGUCCUCAUUUGCUCGUUUUAU [Sensor 3 - 15] (puzzle: Sensor v3, turn-off variant 2)",328,646,323,–,–,–
"AAUAACAAGCCGAUCCUCUACAUGAGGAUCACCCAUGUGUUCGUCUUGUAAAGUACUAUCACGAAAGUGAUAGUACA (Eterna round: R97, puzzle: Sensor, turn-off variant 1)",–,–,–,209,–,244
"AAUAGCAAGUAAGAUCCUAACAUGAGGAUCACCCAUGUGCUCGUCUUGUAAAGUACUAUCACGAAAGUGAUAGUACA [Sensor 3, v1 - 50] (puzzle: Sensor v3, turn-off variant 1)",108,69.4,146,–,–,–
GUGUGCUGAGGAUAUACACAGGAAUAGAAGAUAAGAUAAUCACAUGAGGAUCACCCAUGUAGAAGGCAGAGUGU [Excluse me!! 17 - Jieux - Exclusion 2] (puzzle: Exclusion 2),–,13.9,–,–,–,–
"GAACCUUGAGGAUAUACAUAACAACAAAGCCUCACGUGCCAACAUGAGGAUCACCCAUGUAGAAGGCAAGCCAA [Mod R3 Insanara 9 - Jieux - Exclusion 2] (Eterna round: R97, puzzle: Exclusion 2)",–,–,–,19,–,16.2
"UGUAAGCUAGGAUAUGCUUUGGGAAAGCAUUCCUUCGAUAAACUUGAGGAUCACCCAAGUAGAAGGAGCUUACC [salish99_ex2_r4_008] (Eterna round: R97, puzzle: Exclusion 2)",–,–,–,12.7,–,10.9
UUUGUCUGUGUGAGGAUAUACUUGUUUGGGUUUUUGUAGAAGGCACAUGAGGAUCACCCAUGUAUUUUGUCGUG [JR_BME4_Sub018] (puzzle: Brourd's mod of Exclusion 4),–,36.7,–,–,–,–
